From the supplement of paper PMC10065799, “High-throughput profiling of sequence recognition by tyrosine kinases and SH2 domains using bacterial peptide display” (eLife, 2023)

Biological target: FGFR1 (UniProt P11362)
Test: phosphorylation enrichment, bacterial display (enrichment ratio); higher = better substrate or ligand; peptides without Tyr show the background
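Also: 11-residue human phosphosite peptides and single-mutation variants displayed on the E. coli surface, counted by deep sequencing, each peptide's frequency after selection divided by its frequency in the unselected input library; frequency after pTyr selection over input frequency; kinase dosed for 20-30% of maximal phosphorylation in three min.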

Chain of FGFR1 (P11362 whole entry, looked up): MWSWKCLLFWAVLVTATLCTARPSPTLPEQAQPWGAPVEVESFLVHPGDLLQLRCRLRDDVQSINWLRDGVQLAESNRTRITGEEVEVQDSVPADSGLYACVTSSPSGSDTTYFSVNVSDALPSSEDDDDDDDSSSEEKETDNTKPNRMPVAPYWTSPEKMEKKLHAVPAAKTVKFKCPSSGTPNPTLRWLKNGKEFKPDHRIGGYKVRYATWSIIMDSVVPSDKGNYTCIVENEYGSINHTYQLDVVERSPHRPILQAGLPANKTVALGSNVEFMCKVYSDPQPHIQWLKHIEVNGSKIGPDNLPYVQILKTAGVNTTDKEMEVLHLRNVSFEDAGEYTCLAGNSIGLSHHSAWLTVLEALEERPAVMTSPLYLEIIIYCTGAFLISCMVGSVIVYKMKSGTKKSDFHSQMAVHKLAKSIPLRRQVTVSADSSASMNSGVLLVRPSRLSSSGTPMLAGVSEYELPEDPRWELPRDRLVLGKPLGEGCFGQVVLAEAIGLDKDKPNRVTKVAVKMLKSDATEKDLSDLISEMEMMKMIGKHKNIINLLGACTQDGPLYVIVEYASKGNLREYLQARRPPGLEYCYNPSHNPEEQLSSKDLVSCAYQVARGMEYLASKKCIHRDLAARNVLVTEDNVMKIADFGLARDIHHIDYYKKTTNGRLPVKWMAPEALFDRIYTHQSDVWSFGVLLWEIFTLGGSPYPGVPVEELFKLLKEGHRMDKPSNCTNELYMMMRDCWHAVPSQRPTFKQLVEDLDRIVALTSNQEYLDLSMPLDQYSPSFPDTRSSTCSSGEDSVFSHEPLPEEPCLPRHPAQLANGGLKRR

Going from PIDLYYLMDLS [ITGB2_Y131] to THLAPYSDELR [APOA1_Y190], the phosphorylation enrichment falls from 17.4 to 0.46.

Compared with FFVVEYRNQKP [MUC17_Y4332_D4334N_YF], GCLSKYSGVFS [TUBGCP6_Y1624_V1621L] is lower in phosphorylation enrichment: 0.581 for the first, 0.425 for the second.

Going from DRLASYLEKVR [KRT13_Y118] to KLPDAYEPLIL [G6PD_Y437_R439P], the phosphorylation enrichment rises from 0.393 to 0.53.

Compared with ESKKHYGYSLY [ANXA3_Y295_F291S], ERWLKYFPIEQ [HS3ST5_Y244] is higher in phosphorylation enrichment: 0.408 for the first, 0.452 for the second.

First: DTSKMYIPHTD [EXPH5_Y782]
Second: MCITQYKRESQ [PRNP_Y218_E219K]
The phosphorylation enrichment of the first is higher: 0.445 for the first, 0.443 for the second.

Compared with NAPNSYGRRPS [CDKN2A_Y44_I49S], LDPDSYNKFEN [FOXC1_Y159_M161K] is higher in phosphorylation enrichment: 0.46 for the first, 0.765 for the second.

First: LNGDRYFKGIV [DCX_Y64_R59L]
Second: AAVNGYVFGGG [ECHS1_Y137_A138V]
The phosphorylation enrichment of the first is higher: 4.77 for the first, 0.437 for the second.

Going from SHNKYYMLVAH [MFSD8_Y134_R139H] to LYSGDYYRIQG [DDR2_Y740], the phosphorylation enrichment rises from 6.21 to 32.7.

Compared with SLMGCYNLTFM [HS6ST3_Y323_V320M], LRVHSYKSMQH [DRC7_Y516_P521H] is lower in phosphorylation enrichment: 0.546 for the first, 0.533 for the second.

Compared with PKDSAYVTWEP, IKAGAYDFPSP [CAMK2A_Y230] is lower in phosphorylation enrichment: 2.14 for the first, 0.397 for the second.

Compared with QLAPQYTFAQG [FLNA_Y1761_YF], VKANTYEKFWP [GATM_Y100_YF] is lower in phosphorylation enrichment: 0.561 for the first, 0.317 for the second.

Going from LTERGYSFTTT [ACTB_Y198] to LTVVIYVLVGR [EPHA3_Y561_I564V], the phosphorylation enrichment rises from 0.504 to 0.54.

Compared with RQQEVYLLFKQ [RARRES1_Y159_D158V_YF], RMQLPYDSTWE [PDGFRB_Y589_P584R] is lower in phosphorylation enrichment: 0.789 for the first, 0.779 for the second.

First: VCDSDYSASRW [LRP5_Y1552]
Second: FRIDHYLGKEM [G6PD_Y202_YF]
The phosphorylation enrichment of the first is lower: 0.449 for the first, 0.455 for the second.

First: CTTIHYNFMRN [TP53_Y234_C238R_YF]
Second: VPVDGYISGLL [PAK6_Y81_M76V]
The phosphorylation enrichment of the first is lower: 0.567 for the first, 0.568 for the second.

Going from KLFRVYCDMNT [FGB_Y269_P265L_YF] to ITGNGYYFRVF [MYBPC3_Y1135_I1131T], the phosphorylation enrichment falls from 0.548 to 0.41.

HDHFGYRQSVT [CD55_Y245_R240H_YF] was tested, and the phosphorylation enrichment was 0.479.

Test system: Fer (mouse)
Test: as above

First: PIDLYYLMDLS [ITGB2_Y131]
Second: THLAPYSDELR [APOA1_Y190]
The phosphorylation enrichment of the first is higher: 9.5 for the first, 0.442 for the second.

First: FFVVEYRNQKP [MUC17_Y4332_D4334N_YF]
Second: GCLSKYSGVFS [TUBGCP6_Y1624_V1621L]
The phosphorylation enrichment of the first is higher: 0.82 for the first, 0.514 for the second.

Compared with DRLASYLEKVR [KRT13_Y118], KLPDAYEPLIL [G6PD_Y437_R439P] is higher in phosphorylation enrichment: 0.424 for the first, 2.5 for the second.

Compared with ESKKHYGYSLY [ANXA3_Y295_F291S], ERWLKYFPIEQ [HS3ST5_Y244] is higher in phosphorylation enrichment: 0.453 for the first, 0.566 for the second.

Going from DTSKMYIPHTD [EXPH5_Y782] to MCITQYKRESQ [PRNP_Y218_E219K], the phosphorylation enrichment rises from 0.436 to 0.501.

Compared with NAPNSYGRRPS [CDKN2A_Y44_I49S], LDPDSYNKFEN [FOXC1_Y159_M161K] is lower in phosphorylation enrichment: 0.588 for the first, 0.483 for the second.

Going from LNGDRYFKGIV [DCX_Y64_R59L] to AAVNGYVFGGG [ECHS1_Y137_A138V], the phosphorylation enrichment falls from 3.94 to 0.414.

First: SHNKYYMLVAH [MFSD8_Y134_R139H]
Second: LYSGDYYRIQG [DDR2_Y740]
The phosphorylation enrichment of the first is lower: 1.09 for the first, 1.81 for the second.

First: SLMGCYNLTFM [HS6ST3_Y323_V320M]
Second: LRVHSYKSMQH [DRC7_Y516_P521H]
The phosphorylation enrichment of the first is higher: 1.35 for the first, 0.949 for the second.

Going from PKDSAYVTWEP to IKAGAYDFPSP [CAMK2A_Y230], the phosphorylation enrichment falls from 2.5 to 1.43.

Going from QLAPQYTFAQG [FLNA_Y1761_YF] to VKANTYEKFWP [GATM_Y100_YF], the phosphorylation enrichment rises from 0.471 to 0.595.

First: LTERGYSFTTT [ACTB_Y198]
Second: LTVVIYVLVGR [EPHA3_Y561_I564V]
The phosphorylation enrichment of the first is higher: 0.554 for the first, 0.348 for the second.

First: RQQEVYLLFKQ [RARRES1_Y159_D158V_YF]
Second: RMQLPYDSTWE [PDGFRB_Y589_P584R]
The phosphorylation enrichment of the first is higher: 0.576 for the first, 0.434 for the second.

Going from VCDSDYSASRW [LRP5_Y1552] to FRIDHYLGKEM [G6PD_Y202_YF], the phosphorylation enrichment falls from 0.455 to 0.41.

First: CTTIHYNFMRN [TP53_Y234_C238R_YF]
Second: VPVDGYISGLL [PAK6_Y81_M76V]
The phosphorylation enrichment of the first is higher: 0.571 for the first, 0.559 for the second.

Going from KLFRVYCDMNT [FGB_Y269_P265L_YF] to ITGNGYYFRVF [MYBPC3_Y1135_I1131T], the phosphorylation enrichment falls from 0.523 to 0.488.

In the case of HDHFGYRQSVT [CD55_Y245_R240H_YF], the phosphorylation enrichment is reported as 0.482.
